These results are taken from the DeepSol protein solubility set.

A short description of the series: soluble on expression in E. coli; label from the status in PepcDB or PDB records.
As to “MGSDKIHHHHHHMEANDLLTLGLGLTAPWRVVDQSLDLSKQPSELRLEVEAARGERYPCPACGALCKAHDFAEFSWRHLNFFQHHCLIKARVPRVRCPEHGLKRVNVPWARPGSGFTLLFEQAVMLLAREMPVNAVARYVGVTDKRIWRVVTHYVLKGMGKLDLSRLCGIGLDETATKRGHHYVTIFVDMDRESRPVVFATPGKGKECLKTFAAYLKGRQGNPENVVEVVCDMSPAFLSAAEATFRNAAVTVDWFHVVQIFTKALDEVRRLEAREVILPKAARWAVLKGLETWRIEEQVAALKELEERGLATATAFRVKELLRWVRKADTRQGARWRATRFFEFARELAGDSVLLAPVRKALNTFEDHLPRILRRWDSLLSNARLEGLNGLFQAARSRARGYRNVTTFITMIYLIGAPITQLLEA”, the “soluble on expression in E. coli” value is on record as “not soluble”.
For the sequence “MSLPRGLELLIAQTILQGFDAQYGRFLEVTSGAQQRFEQADWHAVQQAMKNRIHLYDHHVGLVVEQLRCITNGQSTDAAFLLRVKEHYTRLLPDYPRFEIAESFFNSVYCRLFDHRSLTPERLFIFSSQPERRFRTIPRPLAKDFHPDHGWESLLMRVISDLPLRLRWQNKSRDIHYIIRHLTETLGTDNLAESHLQVANELFYRNKAAWLVGKLITPSGTLPFLLPIHQTDDGELFIDTCLTTTAEASIVFGFARSYFMVYAPLPAALVEWLREILPGKTTAELYMAIGCQKHAKTESYREYLVYLQGCNEQFIEAPGIRGMVMLVFTLPGFDRVFKVIKDRFAPQKEMSAAHVRACYQLVKEHDRVGRMADTQEFENFVLEKRHISPALMELLLQEAAEKITDLGEQIVIRHLYIERRMVPLNIWLEQVEGQQLRDAIEEYGNAIRQLAAANIFPGDMLFKNFGVTRHGRVVFYDYDEICYMTEVNFRDIPPPRYPEDELASEPWYSVSPGDVFPEEFRHWLCADPRIGPLFEEMHADLFRADYWRALQNRIREGHVEDVYAYRRRQRFSVRYGEMLFEGHHHHHH”, the “soluble on expression in E. coli” value is given as “not soluble”.
The value for “MNKSESRYYATAARMDEAFLTLLAKKDFEYITVKEICEVAGVNRSTFYLHYETMSDLLSESISRINEQFLAYMEKDSDAFSAKLRNCPRDELYLITPDYLTPYLSYIKNNKRLFRTATENAAVLGMDKSYDRMFRHVFTPILDRYGVLQQDRPYIMAFYIRGLMAIISEWLKNDCTDSITYVTGVIQQCVKMPQSETMNAV” was “not soluble”.
The value for “TLINHLKSLKSQVSAKSASETSQTKQNKTFLAFTTVNADQKAIFDVGKLNGKTAKIIINATETTNAKISTLQEKEAIVLKAPQRFESTDPFPI” was “not soluble”; that for “MGCLLFLLLWALLQAWGSAEVPQRLFPLRCLQISSFANSSWTRTDGLAWLGELQTHSWSNDSDTVRSLKPWSQGTFSDQQWETLQHIFRVYRSSFTRDVKEFAKMLRLSYPLELQVSAGCEVHPGNASNNFFHVAFQGKDILSFQGTSWEPTQEAPLWVNLAIQVLNQDKWTRETVQWLLNGTCPQFVSGLLESGKSELKKQVKPKAWLSRGPSPGPGRLLLVCHVSGFYPKPVWVKWMRGEQEQQGTQPGDILPNADETWYLRATLDVVAGEAAGLSCRVKHSSLEGQDIVL” was “soluble”.
With “MAQNPNSFTDSVFGMIRNLLVSIRAGLFELTIKQPVTQNSLQRYQEEHREEKQQYLRQAILDLAEDSEEEDDGQPLDKETLSKMIAELTIERNNLRRSFNIVNEQRTGSKDRQHMEEEIRIQNWTKEDREELESGLAVMRQTIQESWKDAADCEQEKRSKNNQ”, the “soluble on expression in E. coli” value is given as “not soluble”.
Consider “MLLELPATNSALAIKSVLMAMTPNNDAILVVGERGHIINWQNDDNWQQLQSPVSVAITDVTILSDGSKVAVGHDGVILKVDSNSTTWRKVFTGKEITQFQIAQLKQQYQSLEQVILQTQDEDELEELTYQLDDLTFAIEDNQLELKSGPNKPLLSVTSTSNDTLFASGAYGILLSSKDKGETWQLVSNHLDNPDRFHLNTVIATADDQLYIVGENGMGFHSTDVGQTWSVMTLPYSGSLFGILANTVKTHTISTDDINSTKNKTQLVAFGLQGNIMVSLDGGGNWQHIKLPRSTSLLGGNFSKQGKVYLVGHGGVIVSFYPENLSTLTIKKHPSGAALSSVLVKDNSLILAGQFGISQWPIEAEELEHHHHHH”, for which the “soluble on expression in E. coli” value is given as “not soluble”.
The value for “AHKKIFLVEDNKADIRLIQEALANSTVPHEVVTVRDGMEAMAYLRQEGEYANASRPDLILLDLNLPKKDGREVLAEIKSDPTLKRIPVVVLSTSINEDDIFHSYDLHVNCYITKSANLSQLFQIVKGIEEFWLSTATLPS” was “soluble”; that for “MAHHHHHHMKLLLQADTPGGAAEREANPKYLSTDTLIIVPGHGVLNAPNASEWKNESEWCLEPHQLRAGVVLPLCFASHIRRGLEILRDQINTSILIFSGGQTCGIAGPRSEALGYYIVAKESKLFGIFEPEYVAKDIMNGRIFTEEFARDSYENLLFSIARFYEVTGHFPGSVVVVGWKHKAERFTMYHREAIRFPADKFTYVGLDFADAEPFVEDLQPYQVAKPYTDENALSSVSKDMYLCDAGRRTRSKRNPYFRVPPYLVSCPPLRQLLQHCGPELIDTRRVPWK” was “not soluble”; that for “MSLEALLSEDVKIIASALKAAIDKDRKSTSKREAETGIRYYNHENDIMNNRIFYVDDEGVLREDKYASNVRIPHGFFPEIVDQKTQYLLSNPVEYETENEELKEYLAEYYNSEFQVVLQELVEGSSQKGFEYVYARTNAEDRLCFQVADSLNVFGVYNEYNELQRICRHYITEIEKDGETVDIHHAEVWTDQNVYFFVAEDNKDYELDEAEPINPRPHVLAVDSDNESLLQRSYGQIPFYRLSNNKQETTDLKSIKALIDDYDLMNCFLSNNLQDFAEAIYVVSGFQGDDLSKLRQNVKSKKVVGTGSDGGLDVKTVTIPTEGRKTKMEIDKENIYKFGMAFDSTQVGDGNITNIVIKARYTLLNMKANKTEARLRALLEWMNKLVIDDINRRYTKAFDPTEVSFTFTREVMVNETDIVNNEKTEAETRKIILESILQVAPRLDDDNVLRLICEQFDLDWEDVKEALEEAEYTQGLTDNTDEEETAEGHHHHHH” was “soluble”.
The result for “MGSDKIHHHHHHMTEITTLTQFLSTANTQFQVYDLGRRVQHIDMMAFSQIEALQAPYPSPIQGHAQFAIVFWDDSNQHFIWFLKLPLDERGLLSPAPRTQFIRMVIEALGSDPTQALSQDQQDTLANHPFAFKPSAEKLALFNALVRKQLGLPASAQYEFAYQYLSGQVSPERWQDVGLQGLADICVRAAALDHNEQLLNALEHSADEVKIALCQQLEHITLDAPLAERLLSAFYQGSPEQKLYYLRALASAPALAQQAIQYLDEQDALDDNALITIAGRNWTALKDDQTRKIYLEALAKQPQGFFNQIFADIVAIPAIRTQLLMALRDSERSQALANAIGGLFRVTKA” reads “not soluble”; that for “GPGSMVEHTGLKYQFFIRAASVDWDARDRESMAAGLCPLYQLLHCDVEKLQFVVYCFGEGEAYMFEKAIQTVTKYVDEEKCIMAVRSLRQRETKGHIIYDVAKKETQPAQFFFLLSYAWGMIAVSFPKVTNYDKWEKQKGAARIIMNCPAEMDVKAMCAWMKRGLDPDEQTKYWKMVETHMEKVGPIPRYIFDANKFLAHFAATEDALDGINPRDGESHFTHGGVRLWYSEDPSHKLVRVVRTRGEVGAEVFLNAPISVCLGRRIPLYFWKRDE”, “not soluble”.
The value for “MSLVESLADLEEEKKKNILSSGNGEIDKRLGGGIPLGSLTLIEGENDTGKSVLCQQFVYGGLMSGHNIAYYTTENTIKSFLRQMESLSLDVSDFYAWGYLRVFPVHLEGIDWSTEQMRSILNLVANHIKTIRENIAIIDSLTMFTTYSTEDDVLEFLTRLKNLCDNGKTILITLHQHAFKEDTLVRIRSACDCHLFLRKEQVGDRYVSVLEVSKIRGARKTTGNIVSFEVHPGFGLKIIPVSEARAEGHHHHHH” was “soluble”; that for “MADAIQTAPRFTGKNRDPQLFTVTNHYNEAGTGPLEAAICRHNPLHVVSAALRHQHEESQCPDRKWNPSEKIVKYKDMQ” was “not soluble”; that for “GPGSMLRAFASPILAKVPYATLFEYNHVLQKVFEAQPSKVALRCELPGMPEVQFTYGQLQRDVVALADAVVRRKEAVAQARGETSLGWLQPSKPAHVRSVFAQGERTPSCDYMKDTGFYTTSLLCGPGYTYAVSLLASWSLNQLVTPMPISQRYKDELMYVLEHSGSRSIVGNTKLLKEKLPAEYEELYVRAEADVDKIPRSASREPKQRNDSDVTSNTFFVDTVYDATLLVRDITAARDIQGTATLETEWLPPAESVCAPMRSAEDLVKRLDEEKATAKARELDRQAEILQQEHVRRNRAPMQATGGADPAGSDADGESLFCFDSAHLDELNRVYQRWYTMPSARPTKYDDCLMLYTSGTTAKPKGVVHTHASVANMVKVLQNAWQWRDTDSILHVLPWHHVHGLVNILLCAIASNARCVVTTFDDAARVAHRLEQGDITLFMAVPTVYVKLSDAVQRKFSPIEKTGFRRACMESVRLMVCGSAPLPVPTLNQFCELSGHTLLERYGMTEIGMALSQPLHPISDRHPGTVGSPLQTVKTYVHQPETAEAMEQASAKEAEYDEVGGLGIASESLFDRYWNNATATKKEVRTNAAGMRFFDTGDTVGVRLPAGKPAVYTILGRSSVDIIKSRGYKLSALEIEATLLARNDLFYEIAVVGAADAVQGESVVAIVAMQPEAARARGIAFGEGFAWHESAAVTEELKKAALQLLAPYKCPSRYIVVPEIPRNPTGKVNKKDLKKVLGLA” was “not soluble”.
Consider “MPRFSNKTVIITGSSNGIGRTTAILFAQEGANVTITGRSSERLEETRQIILKSGVSEKQVNSVVADVTTEDGQDQIINSTLKQFGKIDVLVNNAGAAIPDAFGTTGTDQGIDIYHKTLKLNLQAVIEMTKKVKPHLVASKGEIVNVSSIVAGPQAQPDFLYYAIAKAALDQYTRSTAIDLAKFGIRVNSVSPGMVETGFTNAMGMPDQASQKFYNFMASHKECIPIGAAGKPEHIANIILFLADRNLSFYILGQSIVADGGTSLVMGTQAHDVMSIMSSH”, for which the “soluble on expression in E. coli” value is given as “soluble”.
As to “MSDEVPEILLAHYLKTLKLPTFQREYQKLARLCATEGVDHVEYLLRLSEREMIERDRRKVERRIKAARFPVVKSLDSFDFAAIPKLNKMQVLELARCEWIERRENVIALGPSGTGKTHVALGLGLAACQKGLSVGFTTAAALVSEMMEARDERRLLRFQKQMAAYQLLIIDELGFVPLSKTGAELLFELISQRYERGATLITSNLPFDEWTETLGSERLTGALLDRITHHVNILEMNGDSYRLAQSRARKAGAAALEHHHHHH”, the “soluble on expression in E. coli” value is recorded as “soluble”.
On to “MSLDVLGHVFEYFLGEFALAEGKQGGQFYTPKCVVELLVTMLEPYKGRVFDPCCGSGGMFVQSEEFVKSHQGRLDDISIYGQESNQTTYKLAKMNLAIRKIESSQVIWNNEGSFLNDAHKDLKADFIIANPPFNDSDWSGELLENDGRWKYGVPPASNANYAWIQHFLYHLSPNGGVAGFVLAKGALTSNTTNEAAIRKALIEDDLIDCIVNLPAKLFLNTGIPASLWFIRRQKLPKTVKKTLFIDARDLGTRINRRNKTLNKDDINQIANIYKAWKNGTDYEDIKGFCKSVSIDEIRELSYVLTPGRYVGLADSDDEFDFDTRFNELLAKLKSQIKTEQELSEIILKNLEKIKEGHHHHHH”, for which the “soluble on expression in E. coli” value is “not soluble”.
Turning to “MGKGGNYVTVAASEVDELRRKNGEMEKAVEEMKKEMLQLWRRTQVAEEAEERLCSQLAELEAESLDQARDYHSRIIFLMNELSRLSSDSASASP”, the “soluble on expression in E. coli” value was “soluble”.
The result for “MDYTIIDAHAHLWLRQDTVVDGFPIRTLENGRSLFMGEIRQMVPPFMIDGVNSAEVFLSNMDYAQVSAAVITQEFIDGIQNDYLMEVVSRYPDRFFVCGMCEFRKPGYLEQAKELIGKGFKAIKIPAQRLLLKEGRVMLNCPEMMQMFRWMEERGVILSVDLAEGAIQVLEMEEIIQECPRLKIAVGHFGMVTLPDWKEQIKLARHPNVMIESGGITWLFNDEFYPFKGAIKAIREAAELVGMEKLMWGSDYPRTITAITYKMSYDFVVKSPELSEAEKTLFLGGNARKFYGFAELPELPYIKNMSE” reads “not soluble”.
